From patent WO2012119989A2 (dated 2012)

T1: Cell adhesion molecule-1 (CADM1), human, on the cell surface (human) (UniProt Q9BY67)
T1 sequence (looked up): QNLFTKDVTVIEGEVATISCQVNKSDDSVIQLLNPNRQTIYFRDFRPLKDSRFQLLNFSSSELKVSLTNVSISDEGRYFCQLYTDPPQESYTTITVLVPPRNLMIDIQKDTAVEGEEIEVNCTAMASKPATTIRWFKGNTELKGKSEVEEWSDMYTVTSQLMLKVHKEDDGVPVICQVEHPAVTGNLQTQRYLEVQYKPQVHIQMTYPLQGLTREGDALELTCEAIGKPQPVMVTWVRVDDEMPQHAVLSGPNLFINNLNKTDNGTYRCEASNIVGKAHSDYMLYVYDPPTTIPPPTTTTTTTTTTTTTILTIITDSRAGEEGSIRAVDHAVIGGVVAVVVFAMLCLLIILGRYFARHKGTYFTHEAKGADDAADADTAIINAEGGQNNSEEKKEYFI

T2: CADM1 extracellular domain expressed by the CHO-Flpln CADM1 cell line (human) (UniProt Q9BY67)
T2 sequence: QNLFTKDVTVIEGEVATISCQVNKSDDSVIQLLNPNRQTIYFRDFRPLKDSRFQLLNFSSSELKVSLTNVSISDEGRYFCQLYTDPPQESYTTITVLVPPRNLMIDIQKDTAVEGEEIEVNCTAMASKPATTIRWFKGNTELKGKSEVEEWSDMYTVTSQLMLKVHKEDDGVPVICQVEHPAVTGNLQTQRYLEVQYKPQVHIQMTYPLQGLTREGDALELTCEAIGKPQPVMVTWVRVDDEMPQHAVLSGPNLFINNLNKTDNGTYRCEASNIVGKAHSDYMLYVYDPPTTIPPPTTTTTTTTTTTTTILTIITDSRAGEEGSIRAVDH

T3: CADM2, human, on transfected CHO cells (human, UniProt Q8N3J6 25-435)
T3 construct: whole, on cells
T3 sequence (looked up): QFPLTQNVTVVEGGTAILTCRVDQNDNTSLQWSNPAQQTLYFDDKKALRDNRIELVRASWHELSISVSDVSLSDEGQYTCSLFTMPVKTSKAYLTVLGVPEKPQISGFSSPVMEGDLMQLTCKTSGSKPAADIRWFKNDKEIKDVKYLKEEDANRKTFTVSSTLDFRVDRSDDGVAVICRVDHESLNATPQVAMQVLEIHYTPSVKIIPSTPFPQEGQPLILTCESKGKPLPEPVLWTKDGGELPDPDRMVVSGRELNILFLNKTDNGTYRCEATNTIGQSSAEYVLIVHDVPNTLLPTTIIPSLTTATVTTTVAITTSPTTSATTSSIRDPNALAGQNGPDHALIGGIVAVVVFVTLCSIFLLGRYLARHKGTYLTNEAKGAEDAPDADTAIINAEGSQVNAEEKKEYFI

T4: CADM3, human, on transfected CHO cells (human, UniProt Q8N126 25-398)
T4 construct: whole, on cells; also called CADSV13 (OCR)
T4 sequence (looked up): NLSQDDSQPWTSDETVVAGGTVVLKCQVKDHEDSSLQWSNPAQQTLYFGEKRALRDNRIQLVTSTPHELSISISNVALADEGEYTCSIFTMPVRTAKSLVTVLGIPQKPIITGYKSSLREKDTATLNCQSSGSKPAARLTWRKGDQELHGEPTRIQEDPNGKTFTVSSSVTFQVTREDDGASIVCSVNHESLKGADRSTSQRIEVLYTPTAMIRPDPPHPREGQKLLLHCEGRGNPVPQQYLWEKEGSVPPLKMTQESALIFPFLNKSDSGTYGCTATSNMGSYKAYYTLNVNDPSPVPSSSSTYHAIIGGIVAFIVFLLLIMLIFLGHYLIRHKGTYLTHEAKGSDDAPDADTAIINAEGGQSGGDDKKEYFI

T5: CADM4, human, on transfected CHO cells (human, UniProt Q8NFZ8 21-388)
T5 construct: whole, on cells; also called CAD 4
T5 sequence (looked up): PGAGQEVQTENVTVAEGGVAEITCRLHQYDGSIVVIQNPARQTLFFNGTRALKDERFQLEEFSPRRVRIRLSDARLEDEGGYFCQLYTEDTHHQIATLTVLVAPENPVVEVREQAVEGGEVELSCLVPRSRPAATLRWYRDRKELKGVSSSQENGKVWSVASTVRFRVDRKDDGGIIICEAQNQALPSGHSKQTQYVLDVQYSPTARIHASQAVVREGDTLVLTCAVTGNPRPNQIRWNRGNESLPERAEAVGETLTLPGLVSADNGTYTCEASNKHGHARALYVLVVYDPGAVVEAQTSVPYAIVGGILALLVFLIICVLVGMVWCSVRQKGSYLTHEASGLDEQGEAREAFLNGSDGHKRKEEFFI

T6: Cell adhesion molecule-1 (CADM1), human, on the cell surface (human, UniProt Q9BY67 45-442)
T6 construct: whole, on cells; also called TSLC1; IGSF4
T6 sequence (looked up): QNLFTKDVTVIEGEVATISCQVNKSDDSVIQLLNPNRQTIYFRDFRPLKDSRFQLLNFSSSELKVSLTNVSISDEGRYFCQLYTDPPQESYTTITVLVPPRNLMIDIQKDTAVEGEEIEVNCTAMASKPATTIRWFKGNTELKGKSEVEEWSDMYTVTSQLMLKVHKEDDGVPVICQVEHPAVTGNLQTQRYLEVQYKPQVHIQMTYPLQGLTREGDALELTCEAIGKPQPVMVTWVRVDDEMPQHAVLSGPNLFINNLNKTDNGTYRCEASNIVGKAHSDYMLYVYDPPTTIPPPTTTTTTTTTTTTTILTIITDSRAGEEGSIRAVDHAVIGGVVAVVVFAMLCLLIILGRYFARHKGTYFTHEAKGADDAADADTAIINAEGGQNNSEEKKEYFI


Columns and labels:
[1] = target: T1, Cell adhesion molecule-1 (CADM1), human, on the cell surface (human); assay: cell-based or functional assay
[2] = target: T1, Cell adhesion molecule-1 (CADM1), human, on the cell surface (human); assay: flow cytometry, DU145 cells
[3] = target: T1, Cell adhesion molecule-1 (CADM1), human, on the cell surface (human); assay: flow cytometry, LnCaP cells
[4] = target: T2, CADM1 extracellular domain expressed by the CHO-Flpln CADM1 cell line (human); assay: flow cytometry, CHO-Flpln CADM1 cells
[5] = target: T1, Cell adhesion molecule-1 (CADM1), human, on the cell surface (human); assay: flow cytometry, DU145 prostate cancer cells, antibody 10ug/ml
[6] = target: T3, CADM2, human, on transfected CHO cells; assay: flow cytometry, CHO cells transiently transfected with CADM2
[7] = target: T4, CADM3, human, on transfected CHO cells; assay: flow cytometry, CHO cells transiently transfected with CADM3
[8] = target: T5, CADM4, human, on transfected CHO cells; assay: flow cytometry, CHO cells transiently transfected with CADM4
[9] = target: T2, CADM1 extracellular domain expressed by the CHO-Flpln CADM1 cell line (human); assay: flow cytometry, CHO-Flpln CADM1 cells (second table of Example 15)
[10] = target: T6, Cell adhesion molecule-1 (CADM1), …; assay: flow cytometry titration, A375 melanoma cells, human IgG1 isotype
[11] = target: T6, Cell adhesion molecule-1 (CADM1), …; assay: flow cytometry titration, A375 melanoma cells, mouse IgG2a isotype
[12] = target: T6, Cell adhesion molecule-1 (CADM1), …; assay: flow cytometry titration, SKOV3 ovary cancer cells
[13] = target: T1, Cell adhesion molecule-1 (CADM1), human, on the cell surface (human); assay: flow cytometry, LnCaP cells (second table of Example 15)
[14] = target: T1, Cell adhesion molecule-1 (CADM1), human, on the cell surface (human); assay: flow cytometry, SKMEL28 melanoma cells, antibody 10ug/ml
[15] = target: T1, Cell adhesion molecule-1 (CADM1), human, on the cell surface (human); assay: flow cytometry, Lovo colon cancer cells, antibody 10ug/ml
[16] = target: T1, Cell adhesion molecule-1 (CADM1), human, on the cell surface (human); assay: flow cytometry, SW480 colon cancer cells, antibody 10ug/ml
[17] = target: T1, Cell adhesion molecule-1 (CADM1), human, on the cell surface (human); assay: flow cytometry, Caco-2 colon cancer cells, antibody 10ug/ml
[18] = target: T1, Cell adhesion molecule-1 (CADM1), human, on the cell surface (human); assay: flow cytometry, MDA-MB-435S melanoma cells, antibody 10ug/ml
[19] = target: T1, Cell adhesion molecule-1 (CADM1), human, on the cell surface (human); assay: flow cytometry, LnCaP prostate cancer cells, antibody 10ug/ml

Row | Binder | percent of cells bound [2] [%] | percent of cells bound [3] [%] | percent of cells bound [4] [%] | % of fluorescence cells [5] [%] | binding result [6] | binding result [7] | binding result [8] | percent of cells bound [9] [%] | percent of cells bound [13] [%] | other results
1 | Antibody-1 (antibody, V domains shown) VH: EVQLLESGGGLVQPGGSLRLSCAASGFTFSFYPMQWVRQAPGKGLEWVSSIGSSGGYTKYADSVKGRFTISRDNSKNTLYLQMNSLRAEDTAVYYCTRDRWYFDLWGRGTL VL: QSELTQDPAVSVALGHTVKITCQGDTFRTYYASWYQQKPGQAPLLVVYGENKRPSGIPDRFSGSTSGNTASLTITGAQAEDEADYYCHSRDNSGHLHVFGGGTKVTVL | 99 | 99.6 | 99.8 | 99 | – | – | – | – | – | % cell viability at 100 nM, Hum-ZAP assay, DU145 prostate cancer cells [1]: 60.6%
2 | Antibody-10 (antibody, V domains shown, also called AB10; AB 1 0) VH: EVQLLESGGGLVQPGGSLRLSCAASGFTFSMYTMSWVRQAPGKGLEWVSSIWSSGGKTSYADSVKGRFTISRDNSKNTLYLQMNSLRAEDTAVYYCAKESWYFDLWGRGTL VL: QYELTQDPAVSVALGQTVRITCQGHSLRSYYATWYQQKPGQAPVLVMYGENNRPSGIPDRFSGSSSGNTASLTITGAQAEDEADYYCNSRDNSGNHLVFGGGTNLTVL | – | – | 99.8 | – | no binding (tested: 10ug/ml (protocol of Example 19)) | no binding (tested: 10ug/ml (protocol of Example 19)) | no binding (tested: 10ug/ml (protocol of Example 19)) | 98.7 | – | EC50 [10]: 1.26 nM
3 | anti-CADM1 AB-10, mouse IgG2a isotype (antibody, V domains shown, also called AB-10 mouse lgG2a) VH: EVQLLESGGGLVQPGGSLRLSCAASGFTFSMYTMSWVRQAPGKGLEWVSSIWSSGGKTSYADSVKGRFTISRDNSKNTLYLQMNSLRAEDTAVYYCAKESWYFDLWGRGTL VL: QYELTQDPAVSVALGQTVRITCQGHSLRSYYATWYQQKPGQAPVLVMYGENNRPSGIPDRFSGSSSGNTASLTITGAQAEDEADYYCNSRDNSGNHLVFGGGTNLTVL | – | – | – | – | – | – | – | – | – | EC50 [11]: 0.76 nM
4 | Antibody-3 (antibody, V domains shown, also called AB3; AB 3) VH: EVQLLESGGGLVQPGGSLRLSCAASGFTFSRYPMYWVRQAPGKGLEWVSSISSSGGLTHYADSVKGRFTISRDNSKNTLYLQMNSLRAEDTAVYYCARGDWYFDLWGRGTL VL: QYELTQDPAVSVALGQTVRITCQGDSLRTYYASWYQQRPGQAPVLVIYGDNDRPSGIPDRFSGSTSRNTASLTITGAQAEDEAHYYCNSRDSSGNHIFATGTKVTVL | – | – | 99.7 | – | no binding (tested: 10ug/ml (protocol of Example 19)) | no binding (tested: 10ug/ml (protocol of Example 19)) | no binding (tested: 10ug/ml (protocol of Example 19)) | – | – | EC50 [12]: 1 nM
5 | Antibody-2 (antibody, V domains shown) VH: EVQLLESGGGLVQPGGSLRLSCAASGFTFSKYEMVWVRQAPGKGLEWVSYIVPSGGATLYADSVKGRFTISRDNSKNTLYLQMNSLRAEDTAVYYCARVKAGVFDYWGQGTL VL: QYELTQPPSVSVSPGQTARITCSGDRLGETYVSWYQQKPGQSPVLVIFEDNKRPSGIPERFSGSNSGNTATLTVSGTRAMDEADYYCQAWVGSTPFVFGTGTKVTVL | 99.5 | 99.5 | 99.9 | 99.5 | – | – | – | 98.3 | 98.6 | % cell viability at 100 nM, Hum-ZAP assay, A375 melanoma cells [1]: 26.2%; % cell viability at 100 nM, Hum-ZAP assay, Caco-2 colon cancer cells [1]: 55.9%; % cell viability at 100 nM, Hum-ZAP assay, Lovo colon cancer cells [1]: 34.3%; % cell viability at 100 nM, Hum-ZAP assay, MDA-MB-435S melanoma cells [1]: 27.3%; % cell viability at 100 nM, Hum-ZAP assay, SKMEL28 melanoma cells [1]: 36.7%; % cell viability at 100 nM, Hum-ZAP assay, SW480 colon cancer cells [1]: 20.6%; % of viability, Hum-ZAP internalization assay, positive CADM1 cell line, antibody 10-6 M [1]: 85.1%; % of viability, Hum-ZAP internalization assay, positive CADM1 cell line, antibody 10-7 M [1]: 29.3%; % of viability, Hum-ZAP internalization assay, positive CADM1 cell line, antibody 10-8 M [1]: 14%; % of fluorescence cells [14]: 100%; % of fluorescence cells [15]: 99.2%; % of fluorescence cells [16]: 100%; % of fluorescence cells [17]: 99.6%; % of fluorescence cells [18]: 100%; % of fluorescence cells [19]: 98.6%
6 | AB2 NF (antibody, V domains shown) VH: EVQLLESGGGLVQPGGSLRLSCAASGFTFSKYEMVWVRQAPGKGLEWVSYIVPSGGATLYADSVKGRFTISRDNSKNTLYLQMNSLRAEDTAVYYCARVKAGVFDYWGQGTL VL: QYELTQPPSVSVSPGQTARITCSGDRLGETYVSWYQQKPGQSPVLVIFEDNKRPSGIPERFSGSNSGNTATLTVSGTRAMDEADYYCQAWVGSTPFVFGTGTKVTVL | – | – | – | – | – | – | – | 98.5 | 96.8 | –
